Data as given in ChEMBL document CHEMBL1123068, “2-Fluoroformycin and 2-aminoformycin. Synthesis and biological activity” (J Med Chem, 1985).

How the values were obtained:
[1] = substrate: Nc1nc(F)nc2c1ncn2[C@@H]1O[C@H](CO)[C@@H](O)[C@@H]1O; assay: (§1) Kinetic parameter was determined against adenosine deaminase expressed as Vmax
[2] = substrate: Nc1nc(N)c2ncn([C@@H]3O[C@H](CO)[C@@H](O)[C@H]3O)c2n1; assay: as §1
[3] = substrate: Nc1ncnc2c1ncn2[C@@H]1O[C@H](CO)[C@@H](O)[C@H]1O; assay: as §1
[4] = substrate: Nc1nc(F)nc2c1ncn2[C@@H]1O[C@H](CO)[C@@H](O)[C@@H]1O; assay: Kinetic parameter was determined against adenosine deaminase expressed as Km

B1: Adenosine deaminase (Bos taurus), P56658 (protein)
chain: MAQTPAFNKPKVELHVHLDGAIKPETILYYGRKRGIALPADTPEELQNIIGMDKPLSLPEFLAKFDYYMPAIAGCREAVKRIAYEFVEMKAKDGVVYVEVRYSPHLLANSKVEPIPWNQAEGDLTPDEVVSLVNQGLQEGERDFGVKVRSILCCMRHQPSWSSEVVELCKKYREQTVVAIDLAGDETIEGSSLFPGHVKAYAEAVKSGVHRTVHAGEVGSANVVKEAVDTLKTERLGHGYHTLEDATLYNRLRQENMHFEVCPWSSYLTGAWKPDTEHPVVRFKNDQVNYSLNTDDPLIFKSTLDTDYQMTKNEMGFTEEEFKRLNINAAKSSFLPEDEKKELLDLLYKAYGMPSPASAEQCL
Q: B1 was tested. Which Vmax [1] did it give?
A: 0.78 M/min/mg

Q: And the Vmax (µmol min-1 mg-1) [2]?
A: 119

Q: And the Vmax (µmol min-1 mg-1) [3]?
A: 435

Q: What about the Km [4] of the same protein?
A: 81 µM
